Reference: article doi:10.1101/2024.07.05.601840v1

Experiments:
Assay in all cases: purified protein
purified protein [1] = substrate: NC(=O)C1=CN([C@@H]2O[C@H](COP(=O)(O)OP(=O)(O)OC[C@H]3O[C@@H](n4cnc5c(N)ncnc54)[C@H](O)[C@@H]3O)[C@@H](O)[C@H]2O)C=CC1
purified protein [2] = substrate: C/C=C/C(=O)SCCNC(=O)CCNC(=O)[C@H](O)C(C)(C)COP(=O)(O)OP(=O)(O)OC[C@H]1O[C@@H](n2cnc3c(N)ncnc32)[C@H](O)[C@@H]1OP(=O)(O)O
purified protein [3] = substrate: CC(=O)CC(=O)SCCNC(=O)CCNC(=O)[C@H](O)C(C)(C)COP(=O)(O)OP(=O)(O)OC[C@H]1O[C@@H](n2cnc3c(N)ncnc32)[C@H](O)[C@@H]1OP(=O)(O)O; assay type: biochemical, Sulfolobus acidocaldarius; conditions: thiolytic cleavage, 0.2 mM CoA, 20 mM MgCl2, pH 8, 23°C
purified protein [4] = substrate: CC(C)(COP(=O)(O)OP(=O)(O)OC[C@H]1O[C@@H](n2cnc3c(N)ncnc32)[C@H](O)[C@@H]1OP(=O)(O)O)[C@@H](O)C(=O)NCCC(=O)NCCS; assay type: biochemical, Sulfolobus acidocaldarius; conditions: thiolytic cleavage, 0.1 mM AcAcCoA, 20 mM MgCl2, pH 8, 23°C
purified protein [5] = substrate: CC(=O)CC(=O)SCCNC(=O)CCNC(=O)[C@H](O)C(C)(C)COP(=O)(O)OP(=O)(O)OC[C@H]1O[C@@H](n2cnc3c(N)ncnc32)[C@H](O)[C@@H]1OP(=O)(O)O; conditions: 0.2 mM NADH, pH 7 TRIS-HCl, 35°C
purified protein [6] = substrate: C[C@H](O)CC(=O)SCCNC(=O)CCNC(=O)[C@H](O)C(C)(C)COP(=O)(O)OP(=O)(O)OC[C@H]1O[C@@H](n2cnc3c(N)ncnc32)[C@H](O)[C@@H]1OP(=O)(O)O; conditions: oxidative direction with NAD+
purified protein [7] = substrate: NC(=O)c1ccc[n+]([C@@H]2O[C@H](COP(=O)(O)OP(=O)(O)OC[C@H]3O[C@@H](n4cnc5c(N)ncnc54)[C@H](O)[C@@H]3O)[C@@H](O)[C@H]2O)c1; conditions: 0.4 mM crotonyl-CoA, pH 7 TRIS-HCl, 75°C, varied: cofactor
purified protein [8] = substrate: CCCCCCCC(=O)SCCNC(=O)CCNC(=O)[C@H](O)C(C)(C)COP(=O)(O)OP(=O)(O)OC[C@H]1O[C@@H](n2cnc3c(N)ncnc32)[C@H](O)[C@@H]1OP(=O)(O)O; conditions: 1 mM FcPF6, pH 6.5 HEPES-KOH, 20 mM KCl, 65°C
purified protein [9] = substrate: C[C@@H](O)CC(=O)SCCNC(=O)CCNC(=O)[C@H](O)C(C)(C)COP(=O)(O)OP(=O)(O)OC[C@H]1O[C@@H](n2cnc3c(N)ncnc32)[C@H](O)[C@@H]1OP(=O)(O)O; conditions: dehydration, pH 6.5 MES-KOH, 20 mM KCl, 65°C
[10] = 0.2 mM INT, pH 7.5 HEPES-NaOH, 100 mM NaCl
[11] = 0.3 mM NADPH, pH 7.5 HEPES-NaOH, 10 mM KCl, 70°C
[12] = 0.2 mM NAD+, pH 7 TRIS-HCl, 75°C
[13] = 0.6 mM AcAcCoA, pH 7 TRIS-HCl, 35°C, varied: cofactor
[14] = hydration, pH 6.5 MES-KOH, 20 mM KCl, 65°C

B1: ETF (Saci_0315) (Sulfolobus acidocaldarius DSM 639) (protein)
chain: MAELKIVVSIKQVPDADDLRIDPVTNNLVREGVPAVINPPDYHAIEEAIRLKERFGGKTMVLTMGPGQAEVALREALAMGIDEAYLISDRAMAGADTWATSYTVAKAVQRLGGADIILFGRRAVDGETEQVGPQTGKWLGIPVVAYVREIRSIENGKAVVVRTTEFEEEVIEVPLPAVFTILETANKPRQPDILSLIKAKTAKVTVWNKDDIKAEPTKIGLAGSPTKVIKVSPPPKTRKPEIIDGKKDPEKAAEWFLNKIYESLKEAESSLKEYVKPKAKVKVNSEIWVYIDHIGDRINKASLEILSEARRIADLMDTSVAGVVIGGESVKGIINEVYEYGADKVYFAETKGYDRYDNEVYTKALAKLAKKYKPEGIFFPGTRAARELASTSAIEIDTGLIADCTNFDVDDKGVLLATRPDFGGKEMSTIVCPRHRPVMVTTRAGVFMPLPRMPGRTGELIKEEIEDLYSRLKVLEYKNIEKRNILTEADIVVGVGRGIKSPENIKKFEEFATALGGVLGVSKPLADMGWYPKDRQIGQTGTTIRPKVYIALGVSGAVQHLVGILSSRKIGAINLDQSAPIFDNCDFGVVGDIFEIVPKMMELIKKKGE
Km (purified protein [1]; [10]): 0.039 ± 0.012 mM
kcat (purified protein [1]; [10]): 0.784 s⁻¹

B2: ECR (Saci_1115) (Sulfolobus acidocaldarius DSM 639) (protein)
chain: MKAVILPGFKQGYKIDKNVQEPKAGKSEVVVKLRKAALCYRDLLQIQGFYPRSKYPLILGHEMVGEIEEVGEGVEGFKKGDIVTSLLYVPDWTCDNCKMGEEIYCNNRQLYAQELDGFFAERILVKANSLVKVPPGVSDEGAVVVPCVAAMIYRGLKRANVKQGDIVLVTGAGGGVGIHALQVAKALGAKVVGVTSEESKAKIVGKFSDYVVVGNKFAEEVRKGFGEPSIVVDNVGGPTLDESMRSLKIGGKIVQVGNIDPSVNFSLRLGYLVLKNVELIGHAGATKKDIVDTLEMVRQNKITPVIGGEVSIEDFDKALDMLKDRKRHGKILIKP
Km (purified protein [2]; [11]): 0.096 ± 0.018 mM
kcat (purified protein [2]; [11]): 0.256 s⁻¹

B3: KT (Saci_1114) (Sulfolobus acidocaldarius DSM 639) (protein)
chain: MLQEVYLVDFARTPFTRFTRKEPQKDPFYNLRPEELAGIVINRLIEKNGINPREIEEIVTGCALQVGEQWSFGGRHEVFASRLPYTIPSMAVDRQCASSITTVAIGAMEVATGMADIVLAGGVEKMSKTPMFDNPHIEPNMAFLTDPKYAEYDLTTGYVMGLTAERLAEEAKISREEMDRWSLRSHQMATKAIQEGYFKDEIIPFETEVEGKKITLTTDQSVRPDTSLEKLSQLPPAFRPNGTITAGNSAPLNSGSAYVLLMSKNALKRYGLTPMAKIRSFGFAGVPPAVMGKGPVPSSKKALEKANLNVKDISLWEINEAFAVVVLNAIKELGLDESTVNKRGGAIAIGHPLGATGARIVGTLARQLLIEGKDYGVATLCVGGGQGGAIVVERV
Km (purified protein [3]): 0.033 ± 0.01 mM
kcat (purified protein [3]): 1.2 s⁻¹
Km (purified protein [4]): 0.00338 mM
kcat (purified protein [4]): 1.8 s⁻¹

B4: HCDH/ECH (Saci_1109) (Sulfolobus acidocaldarius DSM 639) (protein)
chain: MKVEDIKKILVIGAGTMGHGIAELAAIAGYQVYLSDVSQDILNSAMDKVKWSLTKLKERGTIKEDVETVLQRIRPVVGLDKTVSDADFSIEAITEKIDVKRQTFAKLDELLPPHAILATNTSSLPVSKIAEATKRPDKVVGMHYFNPPALMPLVEVMKGDKTSDETAKVTYELAKKLGKQPIMINKDIPGYVVNRILGGINIASCIVVEKKLADIKEVDAVARYKLGFPMGVFELLDYTGIDVAYYISKSREELGVKDDIPICSLIVEKFKNNELGVKSGKGFYTYPGPGKYVKPELPKELAEKLNPALIIAPAVNEAARLVRENIASKEDVDLGTVLGLGFQKGILKLADEVGIDNIVNSLSELKKLTGISSFDPDPLLTEMVSQGKVGMKSGSGFFEYGKIQQKTLKTLILRVEPPLAWIVLNRPERLNALSQELMGELDKVLDELEFNNDVRVVIITGNGRAFSAGADVTSFTTLRPIDVVRYRYMKNVIYKIQLYTKPVIAAINGFALGGGLELAMACDIRIASNLAQLGQPEINIGIIPGAGGTQRLPRLIGKGRAKLLIYTGDMIPAEEAYKMGLVDQVVPANKFEEEVRRVALKIAEKSPLSLLAAKLAVELGYEANIWTGQELESALFGLLFTTEDVKEGVRAFLERRKPQFKGE
Km (purified protein [2]; [12]): 0.024 ± 0.004 mM
kcat (purified protein [2]; [12]): 20.56 s⁻¹
Km (purified protein [5]): 0.076 ± 0.008 mM
Km (purified protein [6]): 0.043 ± 0.002 mM
kcat (purified protein [6]): 58.672 s⁻¹
Km (purified protein [1]; [13]): 0.028 ± 0.007 mM
kcat (purified protein [1]; [13]): 8.441 s⁻¹
Km (purified protein [7]): 0.036 ± 0.009 mM

B5: KT/DUF35 (Saci_1121/1120 complex) (Sulfolobus acidocaldarius DSM 639) (protein)
chain: MRNVAIVGTGHSKFGVRNDVSMQELAWEAVKQALEEANLEQKDIQYFVVGNVGMWSAEELPAVVVGEYCDLTPKGTMRVEAACATGSAAIRDAYQAIKAGEIDVALVVGVEQMSQSPNPQVIELIGRAGNYFWEFENFGLTFPGYYALYASAYMAKYGMKEEDLGSVAVKNHYYGARNPYAQFQKEITMEEYLKSKPVAQPLKLLDSSPITDGAAALILASEEVARKITDSPVWIVSQGVASGTANLSRRTDFTGIEASYVAAKEAYKRAKIDFSDAWRYFDVADVHDCFTIAEIMAYEDLGFAKRGEGHLMARNGETYIGGKIPVNVDGGLKAKGHPIGATGVSMAVSITRQLLYRAHKGTQADIRNGMGITHNVGGTGHYAYITIYSTRRPSS
Km (purified protein [3]): 0.065 ± 0.0187 mM
kcat (purified protein [3]): 4.024 s⁻¹
Km (purified protein [4]): 0.020 ± 0.0041 mM
kcat (purified protein [4]): 3.467 s⁻¹

B6: ACAD (Saci_1123) (Sulfolobus acidocaldarius DSM 639) (protein)
chain: MVLPFKTMEAFNVEISEKHELFRRAVREFMERDVAPYVEKGEKEGQIPKEVLEKAKELGLYGVSVPEEYGGQGGDSLMTVIAQEEMARVWAALSTRVAVGGLFMTPILLFGSEEQRKKYVTPVAKGDKVAAFANTEPQAGSDVAGMQSTAKKVNGKYILNARKIFITNGGIADYYVVTARTSPPEPNARWKGISMFVVEREWKGVKVLNRIETMGLKASNTAELAFEDVEVPAENLVGEEGMGFKYAMSTFDASRVGVAGQALGVAQAALEKMTNYSVQRSAFGSPLLGFQMVQEKIAETLTEVNAARLVTYWAATLYNKGMTNEAIIASSMAKYFATEVAERAAIRAITVHGGYGVATSTGVERLLRDVEIMKIYEGANDIQKLVILKETARRLFGIKM
Km (purified protein [8]): 0.0151 ± 0.004 mM
kcat (purified protein [8]): 21.234 s⁻¹

B7: MaoC-HCD (Saci_1085) (Sulfolobus acidocaldarius DSM 639) (protein)
chain: MSEQGPFFEDFKVGQRFRSKVGRSLTDVDNIWFTLLTNNSNQIHFNRDYTEKYFSGEPFKGRLVVNGFLTLAIVAGLLVELTSQNGFMLGIENVKFMNPVFAGDTIYGEAEVIEARESKSRPGFGIVKIRTWGYNQRGEKIVEFDRVFMVRKRNSVWSGEKSTDKPQ
Km (purified protein [2]; [14]): 0.222 ± 0.064 mM
kcat (purified protein [2]; [14]): 1.404 s⁻¹
Km (purified protein [9]): 0.399 ± 0.127 mM
kcat (purified protein [9]): 0.549 s⁻¹
